Results from the nanobody polyreactivity screen of Harvey et al. (2022).

Test: yeast display, Sf9 membrane polyspecificity reagent, FACS + sequencing; frameworks hold sequencing errors
In short: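 Genes from sorted yeast were amplified by colony PCR, read by MiSeq 2 × 250 sequencing and filtered on CDR length. These cells carried a synthetic nanobody library in Saccharomyces cerevisiae BJ5465 and were sorted by FACS into low and high (top ~1%) gates on anti-HA and streptavidin fluorescence. Polyreactivity is labelled according to the gate of origin.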

Sequence	polyreactivity (PSR sort gate)
QVQLVESGGGLVQAGGSLRLSCAASGSTFTYYAMGWYRQAPGKERELVAAISRRGGSTYYADSVKGRFTISRDNAKNTVYLQMNSLKPEDTAVYYCAAASHGRFYYWGQGTQVTVSS	high polyreactivity
QVQLVESGGGLVQAGGSHRLSCAASGLIIGYYDMGWYRQAPGQERELVAAITQSSGSTYYADSVKGRFTISRDNAKNTVYLQMNRLKREDTAVYYCARRKWKFADNYKLDYWGQGTQVTVSS	low polyreactivity
QVQLVESGGGLVQAGGRLRLICAASGRTFTPYAMGWYRQAPGKERELVAAITRGGSTYYADSVKGRFTISRDNAKNTVYLHMNSLKPEDTAVYYCNALVSYYKLSSEYDYWGQGTQVTVSS	high polyreactivity
QVQLVESGGGLVQAGGSLRLSCAASGNIYPYYAIGWYRQAPGKERELVAAINAGGGNTYYADSVKGRFTISRDNAKNTVYLQMNSLKPEDTAVYYCAARRVRIYYGSVVWYKYDYWGQGTQVTVSS	high polyreactivity
QVQLVESGGGLVQAGGSLRLSCAASGSIFGYYTMGWYRQAPGKERELVATITSGGSTYYADSVKGRFTISRDNAKNTDYLQMNSLKPEDTAVYYCNARTAQNVVLYDFGYWGQGTQVTVSS	high polyreactivity
QVQLVESGGGLFQAGGSLRLSCAASGRTFHGYAMGWYRQAPGKERELVARINWSDGRTYYADSVKGRFTISRDNAKNTVYLQMNSLKPEDTAVYYCAADKTVSYAPAWYYYWGQGTQVTVSS	low polyreactivity
QVQLVESGGGLVQAGGSLRLSCAASGRIYDDYAMGWYRQAPGKERELVAAISSSGGSTYYADSVKGRFTISRDNAKNTVYLQMNSLKPEDTAVYYCARYPPGRRRYEYWGQGTQVTVSS	high polyreactivity
QVQLVESGGGLVQAGGSLRLSCAASGSIFVDYAMGWYRQAPGKERELVAAITSTGSTTYADSVKGRFTISRDNAKNTVYLQMNSLKPEDTAVYYCAASFRWYGTVRYPYEMYYWGQGTQVTVSS	low polyreactivity
QVQLEESGGGLVQAGGSLRLSCAASGSTLIDNVMVWYRQAPGKERELVASITSSDGTTYADSVKGRITISRDNAKNTVYLQMNSLIPEDTAVYYCAARPWYGTYNYWGQGTQVTVSS	low polyreactivity
QVQLVESGGGLVQAGGSLRLSCAASGSIFTYNAMGWYRPAPGKERELVAAINTSGSTNYADSVKGRFTISRDNAKNTVYLQMNSLKPEVTAVFYCAAGIVVTGYYYWGQGTQVTVSS	low polyreactivity
QFQIVESGGGLVQAGGSLRLSCAASGSIFTQYAMGWYRQAPGKERELVAAITSGGSTYADSVKGRFTISRDNAMNTVYLQMKSLKPEDTAVYYCATPYSYRGVTFNYWGQGTQVTVSS	low polyreactivity
QVQLVESGGGLVQAGGSLRLSCAASGGIFASNAMGWYRQAPGKERELVATITRGGSTNYADSVKGRFTISRDNAKNTVYLQMNSLKPEDTAVYYCAARFYSRAFWTAYYYWGQGTQVTVSS	high polyreactivity
QVQLVESGGGLVQAGGSLRLSCAASGSIFWSNAMGWYRQAAGKERELVASITRSGGSTYYADSVKGRFTISRDNAKNTVYLQMNSLKPEDTAVYYCAARTRGSSYHFDYWGQGTQVTVSS	high polyreactivity
QVQLVESGGGLVHAGGSLRLSCAACGRTFGRYPMGSYRQAPGKERELVAAITVGGGSTYYADSVKGRFTISRDYAKNTVYLQMNSLKPEDTAVYYCNALHTYTYRYDYYYWGQGTQVTVSS	high polyreactivity
QVQLVESGGGLVQAGGSLRLSCAASGFIVKYNAMAWYRQAPGKERELVAAISYRGTRTYYADSVKGRFTISRDNAKNTVYLQMNSLKPEDTAVYYCNAGLTYNHDPYDYWGQGTQVTVSS	high polyreactivity
QVQLVESGGGLVQAGGSLRLSCAASGRIFKFNAMGWYRQAPGKERELVAATWSGGRTSYADSVKGRFTISRDNAKNTVYLQMNSLKPEDTAVYYCNAADWIVVQYDYWGQGTQVTVSS	low polyreactivity

Sequence	polyreactivity (PSR sort gate)
QVQLVESGGGLVQAGGSLRLSCAASGFTFATYAMGWYRQAPGKERELVAAITSGDRTKYADSVKGRFTISRDNAKNTVYLQMNSLKPEDTAVYYCAATTYKVSTGYGYWGQGTQVTVSS	high polyreactivity
QVQLVESRGVLVQAGGSLRLSCAGSGSTILRYALGWYRQAPGKERELVAAINWSGGGTSYADSVKGRFTISRDNAKNTVYFQMNSLKPEDTAVYYCAAYFRYSNYWSEYWGQGTQVTVSS	high polyreactivity
QVQLVESGGGLVQAGGSLRLSCAASGSIFDVNTMGWYRQAPGKERELVAAITNGYRTNYADSVKGRFTISRDNAKNTVYLQMNILKPEDTSVYYCNTDQGTTSDYCFWGQGTQVTVSS	low polyreactivity
QVQLVESGGGLVQAGGSLRLSCAASGSILKFNAMGWNRQAPGKERELVAAITRGTNTYYADSVKGRFTISRDNAKNTVYLQMNTLKPEDTAVYYCAARLPYNAIGYYYWGQGTQVTVSS	low polyreactivity
QVQLVESGGGLVQAGGSLRLSCASSGRIFTWYAMGWYRQAPGKERELVATISSGGSTNYADSVKGRFTISRDNAKNTVYLHMNSKKPEDTAVYYCAARRFFYRYYYKSDYWGQGTQVTVSS	high polyreactivity
QVQLVESGGGLVQAGGSLRLSCAASGLTFPGYAMGWYRQAPGKERELVAGISKRGGSTYYADSVKGRFTISRDNAKNTVYLQMNSLKPEDTAVYYCAAVYRSQSQPYDYWGQGTQVTVSS	high polyreactivity
QVQLVESGGGLVQAGGSLRLSCAASGLIFARNAMVWYRQAPGKERELVAAIAKRGGSTFYADSVKVRFTISRDNAKNTVYLQMNSLKPEDTAVYYCNARSSETWHGDYWGQGTQVTVSS	high polyreactivity
QVQLVESGGGLVQAGGSLRLSCAASGRTLSLYAMGWYRQAPGKEMELVANISNSGGSTDYADSVKGRFTISRDNAKNTVYLQMNSLKPEDTAVYYCAADANSWFTSYQVYGSEFDYWGQGTQVTVSS	low polyreactivity
QVQLVESGGGLVQAGGSLRLSCAASGRTFLINAMGWYRQAPGKERELVADITGRGSSTYYADSVKGRFTISRDNAKNTVYLQMNSLKPEDTAVYYCNAVLRKITYDYWGQGTQVTVSS	high polyreactivity
QVQLVESGGGLVQAGGSLRLSCAASGSTIPSYAMGWYRQAPGKERELVASITYSDGTTRYAYSVKGRFTISRDNAKNTVYLQMNSLKPEDTAVYYCNAVYYREGMDYWGQGTQVTVSS	low polyreactivity
QVHLVESGGGLVKAGGSLRLSCAASGRIFDNYVMGWYRQAPGKERELVAAISSGGGTYYADSVKGRFTISLDNAKNTVYLQMNSLKPEDTAVYYCAAAAYYADFDYWGQGTQVTVSS	low polyreactivity
QVQLVESGGGLVQAGGSLRLSSAASGSTFWVNTMGWYRQAPGKERELVAGSTSNGGSTSYADSVKGRFTITRDNAKNTVYLQKNSLKPEDTAVYYCNADTYPDYWAYLYDYWGQGTQVTVSS	low polyreactivity
QVQLVESGGGLVQAGGSLRLSCAASGRTFRGYAMGWYRQAPGKERELVAAITSSGGRTYYADSVKGRFTISRDNAKNTVYLQMNSLKPEDTAVYYCAKDYYSPRGYDYWGQGTQVTVSS	high polyreactivity
QVQLVESGGGLVQAGGSLRLSCAASGNIFPGYAMGWYRQAPGKERELVAGISGSGGRTYYADSVKGRFTISRDNAKNTVYLQMNSLKTEDTAVYYCAAAFKYYYRFEYDYWGQGTQVTVSS	low polyreactivity
QVQLVESGGGLVQAGGSLRLSCAASGSTFVPNAMGWYRQAPGKERELVAAITVDGDDTYYADSVKGRFTISRDNAKNTVYLQMNSLKPEDTAVYYCAAEQDPWTSRYVFFASRYDYWGQGTQVTVSS	low polyreactivity
QVQLVESGVCIVQAGGSLRLSCAASGFTFRENAMGWYRQAPGKERELVAAISKRGGTTYYADSVKGRFTSSRDYAKNTVILQTNSLKPEDTAVYYCATQYLIQNKYYSWGQGTQVTVSS	high polyreactivity
